Experiments:
[1] = target: T1, human CD22 (hCD22) expressed on the cell surface (human, UniProt P20273 20-847); experiment: cell ELISA on BHK cells expressing human CD22, OD 655 nm
T1 construct: whole, on cells; One molecule is used for all cell-surface formats; also called human CD22 antigen; BHK-CD22

[2] = target: T1, human CD22 (hCD22) expressed on the …; experiment: as above; remark: listed apart in the source
[3] = target: T1, human CD22 (hCD22) expressed on the …; experiment: cell ELISA on BHK cells expressing human CD22, COS-7 supernatant, OD 655 nm
[4] = target: T1, human CD22 (hCD22) expressed on the …; experiment: cell ELISA on BHK cells expressing human CD22, OD 655 nm; remark: listed apart in the source
[5] = target: T1, human CD22 (hCD22) expressed on the …; experiment: cell ELISA on BHK cells expressing human CD22, COS-7 supernatant, OD 655 nm; remark: listed apart in the source
[6] = target: T1, human CD22 (hCD22) expressed on the …; experiment: cell ELISA on BHK cells expressing human CD22, COS-7 supernatant, goat anti-human Ig-HRP, OD 450 nm
From the text: (§1) The BHK-CD22 binding assay was used to test the binding activity of the chHB227 antibody in the transiently transformed COS 7 culture supernatants. A goat anti-human Ig-HRP conjugate (Sigma Chemicals) was used to detect binding of chHB22.7 mAb while a goat anti-mouse Ig-HRP conjugate (Southern Biotechnology) was used to detect binding of the parental mouse HB22.7 mAb. The bound HRP conjugates were exposed to the substrate o-phenyldiamine (OPD) and the resulting products detected at 450 nm.

[7] = target: T1, human CD22 (hCD22) expressed on the …; experiment: cell ELISA on BHK cells expressing human CD22, OD 655 nm; remark: listed apart in the source
[8] = target: T1, human CD22 (hCD22) expressed on the …; experiment: cell ELISA on BHK cells expressing human CD22, goat anti-mouse Ig-HRP, OD 450 nm
From the text: as §1

[9] = target: T1, human CD22 (hCD22) expressed on the …; experiment: flow cytometry on CHO cells transfected with human CD22, labelled secondary antibody, median fluorescence intensity
Description: CHO cells expressing hCD22 were prepared by transfection with a plasmid encoding human CD22 using the Lipofectamine procedure. […] Cells were incubated on ice for 20 minutes then washed and resuspended in PBS followed by addition of secondary antibody, either a goat anti-human (GAH) or GAM-F(ab)′2 anti human-RPE at a 1:1000 dilution. Cells were incubated on ice for an additional 10 minutes and binding activity was evaluated via FACS analysis on a Guava flow cytometer.

[10] = target: hCD22 (ligand immobilised on the BIAcore CM5 sensor chip) (human, UniProt P20273 20-687, limits assumed); experiment: SPR (BIAcore 3000), hCD22 immobilised on CM5 chip, IgG injected, 1:1 model
Description: Binding affinity of HB22.7 and RHOv2ACD/RKA were determined on a BIAcore 3000 instrument (BIAcore, Inc., Uppsala, Sweden). The ligand, hCD22, was prepared at 50 nM in 10 mM NaOAc, pH4 buffer. It was injected onto an EDC/NHS-activated CM5 sensor chip (BIAcore, Inc. Uppsala, Sweden) using a standard immobilization protocol. Following this, any unreacted active ester moieties were quenched using 1M Et-NH2 (ethanolamine; coupling reagents purchased from BIAcore, Inc.). A total of 535 and 689 RUs hCD22 remained bound to two sensor chip surfaces used in these experiments. Separately, a blank surface was prepared on each sensor chip using the identical protocol (minus protein). The blank surfaces were used as a reference cell in the experiments, and served to correct for both non-specific binding and some housekeeping artifacts.
For the kinetic experiments, HB22.7 and RHOv2ACD/RKA were prepared as two dilution series, starting at 22 nM and 100 nM, then diluted three- and two-fold, respectively, down to final concentrations of 0.03 nM and 0.39 nM in HBS-EP buffer (BIAcore, Inc., consisting of the following: 10 mM HEPES buffer, pH7.4, 150 mM NaCl, 3 mM EDTA, and 0.005% P20). Each concentration of IgG was then injected over both the CD22 and reference cell surfaces, which are connected in series. Between injections, surfaces were regenerated with a 1-minute injection of 3M MgCl2.

[11] = target: T1, human CD22 (hCD22) expressed on the …; experiment: competitive cell ELISA on CD22; increasing mouse HB22.7 mixed with 250 ng/ml chHB227 (competitor); mouse HB22.7 titrated against 250 ng/ml chimeric antibody
Description: To confirm the binding effectiveness of the RHF+RKC humanized antibody, a competitive ELISA was performed with increasing amounts of the mouse HB22.7 antibody mixed with 250 ng/ml of chimeric or humanized antibody.

[12] = target: T1, human CD22 (hCD22) expressed on the …; experiment: BHK-CD22 cell ELISA, COS-7 supernatant
[13] = target: T1, human CD22 (hCD22) expressed on the …; experiment: cell ELISA on BHK cells expressing human CD22, COS-7 supernatant, OD 655 nm; remark: listed apart in the source

B1: HB227RHOv2ABCD + HB227RKC humanized antibody (antibody, human IgG1, V domains shown)
VH: QVQLEESGGGVVRPGRSLRLSCAASGFTFDDYGVNWIRQAPGKGLEWVTIIWGDGRTDYNSALKSRFTVSRNNSNNTLSLQMNSLTTEDTAVYYCVRAPGNRAMEYWGQGVLVTVS
VL: DIVMTQSPSSLSASVGDRVTITCKASQSVTNDVAWYQQKPGKAPKLLIYYASNRYTGVPDRFSGSGYGTDFTLTISSLQPEDFATYFCQQDYRSPWTFGGGTKVEIKR
notes: No VH back mutations; Human IgG1 kappa, COS-7 supernatant; also called RHOv2ABCD+RKC
binding result [1]: binds

B2: chimeric HB22.7 antibody chHB227 (chH + chL) (antibody, V domains shown)
VH: QVQLKESGPGLVAPSQSLSITCTVSGFSLSDYGVNWVRQIPGKGLEWLGIIWGDGRTDYNSALKSRLNISKDNSKSQVFLKMNSLKADDTARYYCARAPGNRAMEYWGQGTSVTVS
VL: SIVMTQTPKFLLVSAGDRITLTCKASQSVTNDVAWYQQKPGQSPKLLIYYASNRYTGVPDRFTGSGYGTDFTFTISTVQAEDLAVYFCQQDYRSPWTFGGGTKLEI
notes: Tested as COS-7 supernatant; also called CH+CK; fully chimeric antibody
EC50 (read off the curve) [2]: ~0.3 µg/mL | EC50 (read off the curve) [3]: ~0.1 µg/mL | EC50 (read off the curve) [4]: ~0.3 µg/mL | EC50 (read off the curve) [5]: ~0.1 µg/mL | EC50 (read off the curve) [6]: ~100 ng/mL | EC50 (read off the curve) [7]: ~0.3 µg/mL

B3: parental mouse monoclonal anti-CD22 antibody HB22.7 (antibody, V domains shown)
VH: QVQLKESGPGLVAPSQSLSITCTVSGFSLSDYGVNWVRQIPGKGLEWLGIIWGDGRTDYNSALKSRLNISKDNSKSQVFLKMNSLKADDTARYYCARAPGNRAMEYWGQGTSVTVS
VL: SIVMTQTPKFLLVSAGDRITLTCKASQSVTNDVAWYQQKPGQSPKLLIYYASNRYTGVPDRFTGSGYGTDFTFTISTVQAEDLAVYFCQQDYRSPWTFGGGTKLEI
notes: Mouse antibody from hybridoma ATCC HB11347; It was labelled with Alexa-fluor in some cell assays; also called mouse HB22.7; murine HB22.7
EC50 (read off the curve) [8]: ~90 ng/mL | EC50 (read off the curve) [9]: ~0.2 ug mAb per 10e6 cells | Kd [10]: 14 nM | koff [10]: 0.00017 s⁻¹ | kon [10]: 12000 M⁻¹ s⁻¹ | IC50 [11]: ~4 µg/mL

B4: HB227RHC heavy chain + chimeric HB22.7 light chain (chL) (antibody, human IgG1, V domains shown)
VH: QVQLQESGPALVKPTQTLTLTCTFSGFSLSDYGVNWIRQPPGKALEWLGIIWGDGRTDYNSALKSRLSISKDNSKNQVVLRMTNVDPVDTATYFCARAPGNRAMEYWGQGTVVTVSS
VL: SIVMTQTPKFLLVSAGDRITLTCKASQSVTNDVAWYQQKPGQSPKLLIYYASNRYTGVPDRFTGSGYGTDFTFTISTVQAEDLAVYFCQQDYRSPWTFGGGTKLEI
notes: Human IgG1 kappa, COS-7 supernatant; The VH entry may include the leader; also called RHC+chL
fold better binding than HB227RHB with the same chimeric light chain [12]: ~2 fold

B5: HB227RHB heavy chain + chimeric HB22.7 light chain (chL) (antibody, human IgG1, V domains shown)
VH: QVQLQESGPALVKPTQTLTLTCTFSGFSLSDYGVNWIRQPPGKALEWLAIIWGDGRTDYNSALKSRLSISKDTSKNQVVLRMTNVDPVDTATYFCARAPGNRAMEYWGQGTVVTVSS
VL: SIVMTQTPKFLLVSAGDRITLTCKASQSVTNDVAWYQQKPGQSPKLLIYYASNRYTGVPDRFTGSGYGTDFTFTISTVQAEDLAVYFCQQDYRSPWTFGGGTKLEI
notes: Human IgG1 kappa, COS-7 supernatant; The VH entry may include the leader; also called RHB+chL
binding result [13]: binds
